Measurements taken from publication PMC9333989.

Experiments:
Test in all cases: co-IP; FFLISA as a1; total Lck signal of all sucrose gradient fractions normalised to CD4 signal, given relative to WT
[1] = target: mouse CD4 Clasp mutant (C444S, C446S) (mouse) (UniProt P06332)
[2] = target: mouse CD4 H mutant (total ICD helix mutation, aa430–442 to …) (mouse) (UniProt P06332)
[3] = target: mouse CD4 HC mutant (total helix + clasp: aa430–442 replaced, C444S, C446S) (mouse) (UniProt P06332)
[4] = target: mouse CD4 LL mutant (L437A + L438A) (mouse) (UniProt P06332)
[5] = target: mouse CD4 TP mutant (TMD + Palm: G403V, G406L, C418S, C421S) (mouse) (UniProt P06332)

How did the total CD4–Lck abundance, percent of WT [1] turn out when “Lck (Src kinase) (from UniProt P06240 1-509) (enzyme)” was run?
Its total CD4–Lck abundance, percent of WT is 31 % of WT.

What about the CD4−Lck association, percent of WT [2] of the same substance?
Its CD4−Lck association, percent of WT is 25 % of WT.

And the CD4−Lck association, percent of WT [3]?
Its CD4−Lck association, percent of WT is 14 % of WT.

What about the total CD4–Lck abundance, percent of WT [4] of the same substance?
The total CD4–Lck abundance, percent of WT was 49 % of WT.

What about the total CD4–Lck abundance, percent of WT [5] of the same substance?
Its total CD4–Lck abundance, percent of WT is 123 % of WT.
